In US20260263554A1, “COMPOSITION COMPRISING CPNE7 PROTEIN OR CPNE7 PROTEIN-DERIVED PEPTIDE FOR REMOVING REACTIVE OXYGEN SPECIES IN CELLS” (HYSENSBIO CO., LTD, priority 2022, published 2026):

How the values were obtained:
hDPCs [1] = assay: Immunofluorescence staining with γ-H2A.X (DNA damage marker); format: cell-based, human; conditions: 1 mM H2O2, 100 ng/mL CPNE7 recombinant protein, 24 hours, vs 1 mM H2O2 group
Experimental: Cultured hDPCs were seeded into 35 mm culture dishes for a confocal microscope at a density of 1×10^5 cells, cultured for 24 hours, and then treated with 1 mM H2O2 and treated with 100 ng/mL of rCPNE7. After 24 hours, the cells were fixed with 4% paraformaldehyde.
Immunofluorescence staining using a γ-H2A.X antibody was performed on the fixed cells to compare intensity.
Cultured hDPCs were seeded into 35 mm culture dishes for a confocal microscope at a density of 1×10^5 cells, cultured for 24 hours, and then treated with 1 mM H2O2 and treated with 10 μg/mL of Selcopintide. After 24 hours, the cells were fixed with 4% paraformaldehyde.

[2] = test system: endogenous antioxidant enzymes in hDPC cells; assay: mRNA levels of endogenous antioxidant enzymes by RT-PCR; format: cell-based, human; conditions: hDPCs, 1 mM H2O2, CPNE7 recombinant protein 100 ng/mL or Selcopintide 10 ug/mL
Experimental: Cultured hDPCs were seeded into 60 mm culture dishes at a density of 4×10^5 cells, cultured for 24 hours, and then treated with 1 mM H2O2 and treated with the CPNE7 recombinant protein (100 ng/mL) and Selcopintide (10 ug/mL). After 30 minutes and one hour, the mRNA levels of Sod1, 2, and 3, catalase, Gpx7, Hmox1, and Txmd1 were checked.

[3] = test system: Human dental pulp cells (hDPCs); assay: Optical microscope observation of hDPCs after H2O2 and test substance; format: cell-based; conditions: H2O2 5 uM, 100 uM, 1 mM or 2 mM, 100 ng/ml recombinant CPNE7 protein, 24 hours, compared to control without rCPNE7
Experimental: Human dental pulp cells (hDPCs) were cultured in an α-MEM medium containing 10% FBS under 37° C. and 5% CO2 conditions.
hDPCs were seeded into 35 mm culture dishes at a density of 1×10^5 cells, cultured for 24 hours, treated with H2O2 at a concentration of 5 uM, 100 uM, 1 mM, or 2 mM, respectively, and then treated with 100 ng/ml of a recombinant CPNE7 protein and cultured for 24 hours. After the culture was completed, the cultured cells were washed with PBS, and observed using an optical microscope. At this time, the hDPCs cultured without treating the recombinant CPNE7 protein (rCPNE7) were used as the control.
Cultured hDPC cells were seeded into 6-well plates at a density of 1×10^5 cells per well, cultured for 24 hours, and then treated with 1 mM hydrogen peroxide (H2O2) and treated with Selcopintide at concentrations of 1 μg/mL, 10 μg/mL, 100 μg/mL, and 500 μg/mL for 24 hours. Untreated hDPCs were used as the control.

hDPCs [4] = assay: Beta-galactosidase (B-gal) staining, cell aging; format: cell-based, human; conditions: 1 mM H2O2, 100 ng/mL rCPNE7, 12 or 24 hours, compared to H2O2-only-treated group
Experimental: For this purpose, cultured hDPCs were seeded into 6-well plates at a density of 1×10^5 cells, cultured for 24 hours, and then treated with 1 mM H2O2 and treated with 100 ng/mL of rCPNE7. After 12 or 24 hours, the cells were fixed with 4% paraformaldehyde.
Next, B-gal staining was performed on the fixed cells for 24 hours to compare the degree of cell aging.

hDPCs [5] = assay: Reactive oxygen species level with DCFDA, confocal microscope; format: cell-based, human; conditions: 1 mM H2O2, 100 ng/mL rCPNE7, imaged for approximately one hour
Experimental: Cultured hDPCs were seeded into 35 mm culture dishes for a confocal microscope at a density of 1×10^5 cells, cultured for 24 hours, and then treated with 1 mM H2O2 and treated with 100 ng/mL of rCPNE7. Then, images were taken for approximately one hour using a confocal microscope.
Cultured hDPCs were seeded into 35 mm culture dishes for a confocal microscope at a density of 1×10^5 cells, cultured for 24 hours, and then treated with 1 mM H2O2 and treated with 10 μg/mL of Selcopintide. Thereafter, images were taken for approximately one hour using a confocal microscope.

B1: CPNE7 recombinant protein: recombinant Copine-7 (CPNE7) protein (protein, UniProt Q9UBL6 1-633, looked up)
Copine-7: MSAGSERGAAATPGGLPAPCASKVELRLSCRHLLDRDPLTKSDPSVALLQQAQGQWVQVGRTEVVRSSLHPVFSKVFTVDYYFEEVQRLRFEVYDTHGPSGFSCQEDDFLGGMECTLGQPAQKWLLQVVMRVSVDVLGPAGHCAKHFLCCTESSHLARTGPSFLLRYDDLCLPWATAGAVRWWTCRGGHTQGWQIVAQKKVTRPLLLKFGRNAGKSTITVIAEDISGNNGYVELSFRARKLDDKDLFSKSDPFLELYRVNDDQGLQLVYRTEVVKNNLNPVWEAFKVSLSSLCSCEETRPLKCLVWDYDSRGKHDFIGEFSTTFEEMQKAFEEGQAQWDCVNPKYKQKRRSYKNSGVVVLADLKFHRVYSFLDYIMGGCQIHFTVAIDFTASNGDPRNSCSLHYINPYQPNEYLKALVSVGEICQDYDSDKRFSALGFGARIPPKYEVSHDFAINFNPEDDECEGIQGVVEAYQNCLPRVQLYGPTNVAPIISKVARVAAAEESTGKASQYYILLILTDGVVTDMADTREAIVRASRLPMSIIIVGVGNADFTDMQVLDGDDGVLRSPRGEPALRDIVQFVPFRELKNASPAALAKCVLAEVPKQVVEYYSHRGLPPRSLGVPAGEASPGCTP
hDPCs [1]
  accumulation of DNA damage (γ-H2A.X intensity): significantly reduced
[2]; after 30 minutes, compared to H2O2-only-treated group
  mRNA of endogenous antioxidant enzymes Sod1, 2, and catalase: significantly increased
[2]; after one hour
  mRNA of Sod1 and Gpx7, and Hmox1 and Txrnd1: significantly increased
[3]
  cell viability (optical microscope): higher
hDPCs [4]
  B-gal positive hDPC cells: significantly reduced
hDPCs [5]
  amount of reactive oxygen species (DCFDA): decreased and became significant at approximately one hour
